Assay results: patent US11278600B2, “Human alpha-galactosidase variants” (Codexis, Inc., priority 2014, dated 2022)

Tests used:
Type in all cases: biochemical
[1] = HTP-analysis of yeast culture supernatants, no challenge (MUGal hydrolysis); conditions: activity of the variant/activity of Rd2BB (SEQ ID NO: 10), yeast culture supernatant
How it was run: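 GLA variants expressed in yeast INVSc1, secreted into SD-Ura broth over 66-84 h at 30° C; clarified supernatants tested without challenge. Supernatant mixed with McIlvaine buffer pH 4.8 and 2 mM MUGal (citrate/KCl, pH 4.6), 37° C for 30-180 min, carbonate-quenched, fluorescence Ex 355/Em 448 nm.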

[2] = HTP-analysis of supernatants pretreated with acid (MUGal hydrolysis); conditions: challenge at pH 4.2; activity of the variant/activity of Rd2BB (SEQ ID NO: 10); yeast culture supernatant
How it was run: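 Fluorescence of MUGal hydrolysis (Ex. 355 nm, Em. 448 nm) is read after sodium carbonate quench. The enzyme source is INVSc1 yeast culture supernatant, first exposed to pH 3.3-4.3 McIlvaine buffer at 37° C. for 1-3 h, then reacted at pH 4.8 for 30-180 minutes.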

[3] = HTP-analysis of supernatants pretreated with base (MUGal hydrolysis); conditions: challenge at pH 7.6; activity of the variant/activity of Rd2BB (SEQ ID NO: 10); yeast culture supernatant
How it was run: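 GLA variants were secreted by transformed INVSc1 yeast grown 66-84 h at 30° C. Supernatants were exposed to neutral-to-basic buffers (pH 7.0-9.7) at 37° C for 1-18 h, then assayed with MUGal in acidic citrate/McIlvaine buffer, with fluorescence read after quenching.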

[4] = HTP-analysis of supernatants pretreated with bovine serum (MUGal hydrolysis); conditions: activity of the variant/activity of Rd2BB (SEQ ID NO: 10), yeast culture supernatant
How it was run: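 Yeast INVSc1 culture supernatants containing secreted GLA variants were mixed with bovine serum (20:80) and held 1 h at 37° C. Serum-treated samples then reacted with MUGal (4 mM stock) in citrate/McIlvaine buffer (pH 4.3/4.8) for 180 min at 37° C., were quenched with sodium carbonate, and read by fluorescence (Ex 355, Em 448 nm).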

Molecule | Relative Activity of GLA Variants After No Challenge (NC) [1] | Relative Activity of GLA Variants After Challenge at pH 4.2 [2] | Relative Activity of GLA Variants After Challenge at pH 7.6 [3] | Relative Activity of GLA Variants After Challenge with Serum [4]
290 (protein, Synthetic Polypeptide sequence of Variant No. 290 of mature Human GLA) LDNGLARTPTMGWLHWERFMCNLDCQEEPDSCISEKLFMEMAERMVSEGWKDAGYEYLCIDDCWMAPQRDSEGRLQADPQRFPHGIRQLANYVHSIGLKLGIYADVGNKTCAGFPGSFGYYDIDAQTFADWGVDLLKFDGCYCDSLENLADGYKHMSLALNRTGRSIVYSCEWPLYMWPFQKPNYTEIRQYCNHWRNFADIDDSWASIKSILDWTSFNQERIVDVAGPGGWNDPDMLVIGNFGLSWDQQVTQMALWAIMAAPLFMSNDLRHISPQAKALLQDKDVIAINQDPLGKQGYQLRQGDNFEVWERPLSGDAWAVAMINRQEIGGPRSYTIPVASLGKGVACNPGCFITQLLPVKRKLGFYDWDSRLRSHINPTGTVLLQLENTMQMSLKDLL | +++ (+++ = >2.5 relative activity over Rd2BB (SEQ ID NO: 10)) | +++ (+++ = >2.5 relative activity over Rd2BB (SEQ ID NO: 10)) | +++ (+++ = >2.5 relative activity over Rd2BB (SEQ ID NO: 10)) | +++ (+++ = >2.5 relative activity over Rd2BB (SEQ ID NO: 10))
291 (protein, Synthetic Polypeptide sequence of Variant No. 291 of mature Human GLA) LDNGLARTPTMGWLHWERFMCNLDCQEEPDSCISEKLFMEMAERMVSEGWKDAGYEYLCIDDCWMAPQRDSEGRLQADPQRFPHGIRQLANYVHSKGLKFGIYADVGNKTCAGFPGSFGYYDIDAQTFADWGVDLLKFDGCYCDSLENLADGYKHMSLALNRTGRSIVYSCEWPLYMWPFQKPNYTEIRQYCNHWRNFADIDDSWASIKSILDWTSFNQERIVDVAGPGGWNDPDMLVIGNFGLSWNQQVTQMALWAIMAAPLFMSNDLRHISPQAKALLQDKDVIAINQDPLGKQGYQLRQGDNFEVWERPLSGLAWAVAMINRQEIGGPRSYTIAVASLGKGVACNPACFITQLLPVKRKLGLYEWTSRLRSHINPTGTVLLQLENTMQMSLKDLL | + (+ = 0.5 to 1.5 relative activity over Rd2BB (SEQ ID NO: 10)) | + (+ = 0.5 to 1.5 relative activity over Rd2BB (SEQ ID NO: 10)) | + (+ = 0.5 to 1.5 relative activity over Rd2BB (SEQ ID NO: 10)) | + (+ = 0.5 to 1.5 relative activity over Rd2BB (SEQ ID NO: 10))
292 (protein, Synthetic Polypeptide sequence of Variant No. 292 of mature Human GLA) LDNGLARTPTMGWLHWERFMCNLDCQEEPDSCISEKLFMEMAERMVSEGWKDAGYEYLCIDDCWMAPQRDSEGRLQADPQRFPHGIRQLANYVHSKGLKFGIYADVGNKTCAGFPGSFGYYDIDAQTFADWGVDLLKFDGCYCDSLENLADGYKHMSLALNRTGRSIVYSCEWPLYMWPFQKPNYTEIRQYCNHWRNFADIDDSWASVKSILDWTSFNHERIVDVAGPGGWNDPDMLVIGNFGLSWDQQVTQMALWAIMAAPLFMSNDLRHISPQAKALLQDKDVIAINQDPLGKQGYQLRKGDNFEVWERPLSGLAWAVAVINRQEIGGPRSYTIAVASLGKGVACNPACFITQLLPVKRKLGFYEWTSRLKSHVNPTGTVLLQLENTMQMSLKDLL | +++ (+++ = >2.5 relative activity over Rd2BB (SEQ ID NO: 10)) | ++ (++ = 1.5 to 2.5 relative activity over Rd2BB (SEQ ID NO: 10)) | +++ (+++ = >2.5 relative activity over Rd2BB (SEQ ID NO: 10)) | ++ (++ = 1.5 to 2.5 relative activity over Rd2BB (SEQ ID NO: 10))
293 (protein, Synthetic Polypeptide sequence of Variant No. 293 of mature Human GLA) LDNGLARTPTMGWLHWERFMCNLDCQEEPDSCISEKLFMEMAERMVSEGWKDAGYEYLCIDDCWMAPQRDSEGRLQADPQRFPHGIRQLANYVHSKGLKFGIYADVGNKTCAGFPGSFGYYDIDAQTFADWGVDLLKFDGCYCDSLENLADGYKHMSLALNRTGRSIVYSCEWPLYMWPFQKPNYTEIRQYCNHWRNFADIDDSWASVKSILDWTSFNQEKIVDVAGPGGWNDPDMLVIGNFGLSWDQQVTQMALWAIMAAPLFMSNDLRHISPQAKALLQDKDVIAINQDPLGKQGYQLRKGDNFEVWERPLSGLAWAVAVINRQEIGGPRSYTIAVASLGKGVACNPACFITQLLPVKRKLGLYEWTSRLRSHVNPTGTVLLQLENTMQMSLKDLL | ++ (++ = 1.5 to 2.5 relative activity over Rd2BB (SEQ ID NO: 10)) | + (+ = 0.5 to 1.5 relative activity over Rd2BB (SEQ ID NO: 10)) | ++ (++ = 1.5 to 2.5 relative activity over Rd2BB (SEQ ID NO: 10)) | + (+ = 0.5 to 1.5 relative activity over Rd2BB (SEQ ID NO: 10))
294 (protein, Synthetic Polypeptide sequence of Variant No. 294 of mature Human GLA) LDNGLARTPTMGWLHWERFMCNLDCQEEPDSCISEKLFMEMAERMVSEGWKDAGYEYLCIDDCWMAPQRDSEGRLQADPQRFPHGIRQLANYVHSKGLKFGIYADVGNKTCAGFPGSFGYYDIDAQTFADWGVDLLKFDGCYCDSLENLADGYKHMSLALNRTGRSIVYSCEWPLYMWPFQKPNYTEIRQYCNHWRNFADIDDSWASVKSILDWTSFNQETIVDVAGPGGWNDPDMLVIGNFGLSWDQQVTQMALWAIMAAPLFMSNDLRHISPQAKALLQDKDVIAINQDPLGKQGYQLRQGDNFEVWERPLSGLAWAVAVINRQEIGGPRSYTIAVASLGKGVACNPACFITQLLPVKRKLGFYEWTSRLRSHVNPTGTVLLQLENTMQMSLKDLL | ++ (++ = 1.5 to 2.5 relative activity over Rd2BB (SEQ ID NO: 10)) | ++ (++ = 1.5 to 2.5 relative activity over Rd2BB (SEQ ID NO: 10)) | +++ (+++ = >2.5 relative activity over Rd2BB (SEQ ID NO: 10)) | + (+ = 0.5 to 1.5 relative activity over Rd2BB (SEQ ID NO: 10))
295 (protein, Synthetic Polypeptide sequence of Variant No. 295 of mature Human GLA) LDNGLARTPTMGWLHWERFMCNLDCQEEPDSCISEKLFMEMAERMVSEGWKDAGYEYLCIDDCWMAPQRDSEGRLQADPQRFPHGIRQLANYVHSKGLKFGIYADVGNKTCAGFPGSFGYYDIDAQTFADWGVDLLKFDGCYCDSLENLADGYKHMSLALNRTGRSIVYSCEWPLYMWPFQKPNYTEIRQYCNHWRNFADIDDSWASVKSILDWTSFNQETIVDVAGPGGWNDPDMLVIGNFGLSWDQQVTQMALWAIMAAPLFMSNDLRHISPQAKALLQDKDVIAINQDPLGKQGYQLRKGDNFEVWERPLSGLAWAVAIINRQEIGGPRSYTIAVASLGKGVACNPACFITQLLPVKRKLGLYEWTSRLKSHVNPTGTVLLQLENTMQMSLKDLL | +++ (+++ = >2.5 relative activity over Rd2BB (SEQ ID NO: 10)) | +++ (+++ = >2.5 relative activity over Rd2BB (SEQ ID NO: 10)) | +++ (+++ = >2.5 relative activity over Rd2BB (SEQ ID NO: 10)) | +++ (+++ = >2.5 relative activity over Rd2BB (SEQ ID NO: 10))
233 (protein, Synthetic Polypeptide sequence of Variant No. 233 of mature Human GLA) LDNGLARTPTMGWLHWERFMCNLDCQEEPDSCISEKLFMEMAELMVSEGWKDAGYEYLCIDDCWMAPQRDSEGRLQADPQRFPHGIRQLANYVHSKGLKLGIYADVGNKTCAGFPGSFGYYDIDAQTFADWGVDLLKFDGCYCDSLENLADGYKHMSLALNRTGRSIVYSCEWPLYMWPFQKPNYTEIRQYCNHWRNFADIDDSWASIKSILDWTSRNQERIVDVAGPGGWNDPDMLVIGNFGLSWDQQVTQMALWAIMAAPLFMSNDLRHISPQAKALLQDKDVIAINQDPLGKQGYQLRQGDNFEVWERPLSGDAWAVAMINRQEIGGPRSYTIAVASLGKGVACNPGCFITQLLPVKRKLGFYDWDSRLRSHINPTGTVLLQLENTMQMSLKDLL | +++ (+++ = >2.5 relative activity over Rd2BB (SEQ ID NO: 10)) | +++ (+++ = >2.5 relative activity over Rd2BB (SEQ ID NO: 10)) | +++ (+++ = >2.5 relative activity over Rd2BB (SEQ ID NO: 10)) | +++ (+++ = >2.5 relative activity over Rd2BB (SEQ ID NO: 10))
